# From US20220332804A1 (CSL INNOVATION, published 2022)
# T1: human C2 G466A (human, UniProt P06681 21-752)
# T1 sequence: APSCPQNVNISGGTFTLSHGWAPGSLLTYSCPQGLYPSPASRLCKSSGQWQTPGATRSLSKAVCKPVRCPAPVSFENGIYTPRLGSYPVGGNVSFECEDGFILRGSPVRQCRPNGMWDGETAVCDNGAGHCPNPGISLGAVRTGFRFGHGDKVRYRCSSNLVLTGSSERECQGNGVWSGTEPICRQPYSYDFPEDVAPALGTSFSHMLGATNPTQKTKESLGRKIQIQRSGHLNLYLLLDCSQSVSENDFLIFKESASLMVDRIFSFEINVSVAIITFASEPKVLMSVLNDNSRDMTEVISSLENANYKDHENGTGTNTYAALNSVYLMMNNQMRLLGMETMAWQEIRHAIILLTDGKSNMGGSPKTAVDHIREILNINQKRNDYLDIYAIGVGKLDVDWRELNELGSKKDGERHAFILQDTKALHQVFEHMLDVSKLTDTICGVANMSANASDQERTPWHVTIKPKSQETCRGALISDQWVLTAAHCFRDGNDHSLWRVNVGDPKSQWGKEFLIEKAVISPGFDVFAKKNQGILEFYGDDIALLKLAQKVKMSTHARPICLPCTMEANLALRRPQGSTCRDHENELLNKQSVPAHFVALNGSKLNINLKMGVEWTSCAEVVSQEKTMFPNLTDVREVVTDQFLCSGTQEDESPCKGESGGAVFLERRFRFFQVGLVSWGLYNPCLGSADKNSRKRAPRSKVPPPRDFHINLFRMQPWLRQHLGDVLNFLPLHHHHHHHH
# T2: human C2 K415A (human, UniProt P06681 21-752)
# T2 sequence: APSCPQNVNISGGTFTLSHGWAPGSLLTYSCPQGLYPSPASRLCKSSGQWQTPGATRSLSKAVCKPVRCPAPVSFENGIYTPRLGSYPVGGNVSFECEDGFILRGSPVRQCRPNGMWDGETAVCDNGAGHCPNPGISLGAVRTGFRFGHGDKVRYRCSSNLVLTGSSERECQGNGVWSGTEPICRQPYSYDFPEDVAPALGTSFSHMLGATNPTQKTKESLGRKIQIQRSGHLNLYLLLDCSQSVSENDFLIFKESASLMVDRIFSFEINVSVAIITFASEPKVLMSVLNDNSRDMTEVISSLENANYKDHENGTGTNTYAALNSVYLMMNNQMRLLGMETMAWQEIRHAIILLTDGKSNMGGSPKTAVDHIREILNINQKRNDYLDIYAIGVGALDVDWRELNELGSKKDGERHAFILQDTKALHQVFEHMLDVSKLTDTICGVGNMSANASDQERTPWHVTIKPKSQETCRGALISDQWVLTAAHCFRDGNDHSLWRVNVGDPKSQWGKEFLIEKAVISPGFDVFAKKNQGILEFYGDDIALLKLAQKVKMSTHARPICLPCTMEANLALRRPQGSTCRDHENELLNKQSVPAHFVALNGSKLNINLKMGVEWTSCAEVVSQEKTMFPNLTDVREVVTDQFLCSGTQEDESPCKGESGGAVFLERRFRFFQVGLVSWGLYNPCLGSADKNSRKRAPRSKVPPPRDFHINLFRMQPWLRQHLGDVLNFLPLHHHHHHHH
# T3: human C2 R493A (human, UniProt P06681 21-752)
# T3 sequence: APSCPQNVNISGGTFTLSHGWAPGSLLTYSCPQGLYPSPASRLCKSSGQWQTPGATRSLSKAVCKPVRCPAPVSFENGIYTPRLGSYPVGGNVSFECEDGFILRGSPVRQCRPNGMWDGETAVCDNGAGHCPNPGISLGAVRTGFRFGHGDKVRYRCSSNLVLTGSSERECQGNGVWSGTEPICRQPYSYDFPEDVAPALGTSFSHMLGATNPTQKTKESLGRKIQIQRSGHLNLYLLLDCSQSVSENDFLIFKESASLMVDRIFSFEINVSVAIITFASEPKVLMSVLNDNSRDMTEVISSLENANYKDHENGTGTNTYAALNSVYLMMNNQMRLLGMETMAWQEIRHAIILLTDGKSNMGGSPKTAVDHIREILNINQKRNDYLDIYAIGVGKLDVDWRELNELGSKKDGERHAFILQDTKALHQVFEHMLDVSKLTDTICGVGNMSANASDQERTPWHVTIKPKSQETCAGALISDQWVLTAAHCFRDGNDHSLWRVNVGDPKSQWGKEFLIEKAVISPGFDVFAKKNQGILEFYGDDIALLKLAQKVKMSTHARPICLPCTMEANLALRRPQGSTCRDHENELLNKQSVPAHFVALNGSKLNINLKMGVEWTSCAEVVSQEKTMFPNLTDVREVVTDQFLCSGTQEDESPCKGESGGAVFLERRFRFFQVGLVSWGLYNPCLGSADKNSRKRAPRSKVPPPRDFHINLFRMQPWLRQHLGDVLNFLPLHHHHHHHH
# T4: human C2 I320A (human, UniProt P06681 21-752)
# T4 sequence: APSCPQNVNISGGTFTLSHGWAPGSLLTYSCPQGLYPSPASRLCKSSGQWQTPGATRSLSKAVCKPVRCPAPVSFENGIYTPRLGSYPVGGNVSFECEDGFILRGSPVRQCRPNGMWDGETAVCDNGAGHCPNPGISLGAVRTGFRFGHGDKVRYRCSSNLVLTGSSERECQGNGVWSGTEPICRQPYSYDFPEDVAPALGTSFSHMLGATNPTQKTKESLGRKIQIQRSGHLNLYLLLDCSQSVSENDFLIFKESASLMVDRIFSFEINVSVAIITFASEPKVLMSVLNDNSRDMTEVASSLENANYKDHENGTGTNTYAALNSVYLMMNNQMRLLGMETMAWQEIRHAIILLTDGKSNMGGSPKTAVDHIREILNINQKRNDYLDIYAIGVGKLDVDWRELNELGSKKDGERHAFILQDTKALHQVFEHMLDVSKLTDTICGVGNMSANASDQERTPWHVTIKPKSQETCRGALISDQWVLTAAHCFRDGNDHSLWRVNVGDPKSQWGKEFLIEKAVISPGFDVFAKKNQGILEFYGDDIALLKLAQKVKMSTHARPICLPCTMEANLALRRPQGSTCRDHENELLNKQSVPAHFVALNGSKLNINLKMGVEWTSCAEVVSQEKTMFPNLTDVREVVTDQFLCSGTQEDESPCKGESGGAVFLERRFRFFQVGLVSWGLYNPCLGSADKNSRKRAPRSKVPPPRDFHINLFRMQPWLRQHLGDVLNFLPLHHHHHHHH
# How the values were obtained:
# Assay in all cases: SPR, antibody captured, C2 as analyte;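 also: biacore at 37 °C, anti-C2 mAbs held by immobilised goat anti-human IgG, C2 alanine or serine mutants injected, double-referenced sensorgrams fitted to a 1:1 kinetic or steady-state model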
# human C2 G466A = biological target: T1, human C2 G466A
# human C2 K415A = biological target: T2, human C2 K415A
# human C2 R493A = biological target: T3, human C2 R493A
# human C2 I320A = biological target: T4, human C2 I320A
binder,measurement,setting,value
"RF16-242 (antibody, human IgG4 S228P, lambda, V domains shown, pH-dependent anti-C2 antibody from a phage display library) VH: EVQLLQSGAEVKKPGESLKISCKGSGYSFTSYWIGWVRQMPGKGLEWMGIIYPGDSDTRYSPSFQGQVTISADKSISTAYLQWSSLKASDTAMYYCARRGHYGDYFDYWGQGTLVTVSS VL: SYELTQPPSVSVSPGQTARITCSGDALPKKYAYWYHQKSGQAPVLVIYEDRRRPSEIPERFSGSSSGTMATLTITGAQVEDEGVYFCYSRDRAGNQRVFGGGTQLTVLG",Kd,human C2 G466A,24.9 nM
same,Kd,human C2 K415A,4.1 nM
same,Kd,human C2 R493A,7.2 nM
same,Kd,human C2 I320A,73.5 nM
